The values below come from article PMC7207076 (Biochemistry, 2020).

The target in test [1] is T1, KDM5A1–797 (Homo sapiens, UniProt P29375).
T1 sequence (P29375 1-797): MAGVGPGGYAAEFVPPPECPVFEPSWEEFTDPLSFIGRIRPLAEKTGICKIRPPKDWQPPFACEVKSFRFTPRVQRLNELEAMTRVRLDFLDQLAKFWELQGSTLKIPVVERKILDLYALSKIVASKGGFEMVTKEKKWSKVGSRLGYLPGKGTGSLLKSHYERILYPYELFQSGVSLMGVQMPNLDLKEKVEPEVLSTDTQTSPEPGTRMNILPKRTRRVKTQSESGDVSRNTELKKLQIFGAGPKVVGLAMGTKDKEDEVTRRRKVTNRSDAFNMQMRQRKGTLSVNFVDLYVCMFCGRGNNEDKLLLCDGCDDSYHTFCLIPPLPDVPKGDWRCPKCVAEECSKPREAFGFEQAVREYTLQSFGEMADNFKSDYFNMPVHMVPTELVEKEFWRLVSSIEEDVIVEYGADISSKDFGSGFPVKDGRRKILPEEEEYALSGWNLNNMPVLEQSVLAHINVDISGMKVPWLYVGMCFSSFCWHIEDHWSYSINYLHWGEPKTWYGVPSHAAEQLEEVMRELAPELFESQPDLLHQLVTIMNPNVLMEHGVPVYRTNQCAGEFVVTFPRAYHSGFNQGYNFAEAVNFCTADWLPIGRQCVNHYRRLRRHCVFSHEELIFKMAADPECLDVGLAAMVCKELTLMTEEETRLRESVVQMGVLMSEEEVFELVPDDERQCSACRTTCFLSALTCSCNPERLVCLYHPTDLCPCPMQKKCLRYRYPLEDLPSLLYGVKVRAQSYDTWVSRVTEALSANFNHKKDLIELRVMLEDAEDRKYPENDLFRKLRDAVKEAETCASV
In kind it is biochemical. Conditions: for kcat: 21mer H3K4me3 peptide substrates, saturating (20 μM) effector peptide (unmodified H3 10mer, aa 1–10), means ± SEM of two independent experiments, SEM; for fold increase of KMapp compared to the 18mer WT peptide: H3K4me3 basic patch (K14-K18) deletion/mutant/acetylated peptides; for fold increase of KMapp relative to 21mer WT peptide: 21mer H3K4me3 peptides, PHD1 domain saturated with effector peptide.

The target of test [2] is T1, KDM5A1–797. The class given is biochemical. Conditions: for KDM5A1–797 activity normalized to the 18mer WT peptide reaction (100%): H3K4me3 basic patch mutant/deletion peptides.

Non-standard residues stand in square brackets, D forms with d. No end group written: not given here. Lys(Me3) = C[N+](C)(C)CCCC[C@H](N)C(=O)O

Turning to “T3A: 21mer H3K4me3 peptide with T3A mutation”, the kcat (in general, the maximal rate divided by the concentration of active sites) with KDM5A1–797 [1] was found to be 0.056 ± 0.001 s⁻¹.
“18mer-K14A/R17A/K18A: 18mer H3K4me3 peptide, K14A/R17A/K18A triple mutant (ART[Lys(Me3)]QTARKSTGGAAPAA; UniProt P68431 2-19, looked up, variant K14A R17A K18A)”: the “KDM5A1–797 activity normalized to the 18mer WT peptide reaction (100%)” value with KDM5A1–797 [2] (two independent experiments) amounted to 28%−35%. Further, the “fold increase of KMapp compared to the 18mer WT peptide” value with KDM5A1–797 [1] came out at 8 fold.
On to “T6S: 21mer H3K4me3 peptide with T6 mutated to serine”, for which the kcat in the test with KDM5A1–797 [1] was 0.070 ± 0.002 s⁻¹.
Regarding “13mer: 13mer H3K4me3 peptide lacking the K14-K18 basic patch (ARTKQTARKSTGG; K4me3; UniProt P68431 2-14, looked up, fragment)”, the “KDM5A1–797 activity normalized to the 18mer WT peptide reaction (100%)” value with KDM5A1–797 [2] (two independent experiments) is given as 28%−35%. For the same substance, in the test with KDM5A1–797 [1], the “fold increase of KMapp compared to the 18mer WT peptide” value stood at 8 fold.
As for “K9A: 21mer H3K4me3 peptide with K9A mutation”, in the test with KDM5A1–797 [1], the kcat is 0.061 ± 0.002 s⁻¹.
As to “H3K18me3 (aa 12—32): H3 peptide aa 12—32 trimethylated at K18”, the “demethylation of H3K18me3 peptide by KDM5A1—797” value with KDM5A1–797 [2] (peptide incubated with KDM5A1—797 (Figure S3)) is reported as “no demethylation was detected”.
Regarding “T6V: 21mer H3K4me3 peptide with T6 mutated to valine”, in the test with KDM5A1–797 [1], the kcat is 0.050 ± 0.003 s⁻¹ and the “fold increase of KMapp relative to 21mer WT peptide” value worked out at 3 fold.
Turning to “Q5A: 21mer H3K4me3 peptide with Q5A mutation”, the “KDM5A1–797 activity normalized to the 21mer H3K4me3 WT peptide reaction (100%)” value in the test with KDM5A1–797 [2] (21mer H3K4me3 alanine mutant peptides, two independent experiments) is listed as ~ 20%. Further, in the test with KDM5A1–797 [1], the kcat stood at 0.056 ± 0.003 s⁻¹ and the “fold increase of KMapp relative to 21mer WT peptide” value is more than 30 fold.
Take “R2A: 21mer H3K4me3 peptide with R2A mutation”: the “fold rescue in demethylation in the presence of the effector peptide” value in the test with KDM5A1–797 [2] (20 μM effector (unmodified 10mer H3 peptide), 21mer H3K4me3 mutant peptide) is recorded as ~ 3 fold. Also, in the test with KDM5A1–797 [1], the kcat worked out at 0.069 ± 0.002 s⁻¹ and the “fold increase of KMapp relative to 21mer WT peptide” value is reported as ~ 12 fold.
Regarding “WT: H3 N-terminal 21mer (aa A1-A21) H3K4me3 wild-type peptide substrate”, the kcat with KDM5A1–797 [1] stood at 0.052 ± 0.001 s⁻¹.
Consider “T6A: 21mer H3K4me3 peptide with T6A mutation”, for which, in the test with KDM5A1–797 [1], the kcat was 0.075 ± 0.004 s⁻¹ and the “fold increase of KMapp relative to 21mer WT peptide” value is given as ~ 8 fold.
In the case of “R8A: 21mer H3K4me3 peptide with R8A mutation”, in the test with KDM5A1–797 [1], the turnover number (kcat) worked out at 0.054 ± 0.002 s⁻¹ and the “fold increase of KMapp relative to 21mer WT peptide” value is given as ~ 4 fold.
